The test system of data set [1] is T1, PBCV-1 deaminase (Paramecium bursaria chlorella virus 1?).
T1 sequence: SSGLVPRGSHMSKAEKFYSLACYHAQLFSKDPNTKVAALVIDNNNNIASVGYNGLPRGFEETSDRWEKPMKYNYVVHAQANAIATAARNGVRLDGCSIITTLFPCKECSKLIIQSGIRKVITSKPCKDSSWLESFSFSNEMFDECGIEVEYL
Particulars: overnight.

Data set [2] concerns B4 deaminase. Particulars: 5mC at position 17; solid support, overnight.
Data set [3] has as its system T2, F7 deaminase.
T2 sequence: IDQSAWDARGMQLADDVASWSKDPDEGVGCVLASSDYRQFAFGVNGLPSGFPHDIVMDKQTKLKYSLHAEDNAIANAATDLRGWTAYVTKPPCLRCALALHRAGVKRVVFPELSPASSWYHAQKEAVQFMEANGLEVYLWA
Particulars: Zn, 2-3 h.

Data set [4] deals with T3, E10 deaminase.
T3 sequence: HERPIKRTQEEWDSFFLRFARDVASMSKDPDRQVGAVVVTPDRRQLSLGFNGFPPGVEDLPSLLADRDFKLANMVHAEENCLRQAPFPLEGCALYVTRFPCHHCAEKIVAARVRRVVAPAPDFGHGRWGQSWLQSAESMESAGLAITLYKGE
Conditions: 2-3 h.

Data set [5] relates to T4, B5 deaminase.
T4 sequence: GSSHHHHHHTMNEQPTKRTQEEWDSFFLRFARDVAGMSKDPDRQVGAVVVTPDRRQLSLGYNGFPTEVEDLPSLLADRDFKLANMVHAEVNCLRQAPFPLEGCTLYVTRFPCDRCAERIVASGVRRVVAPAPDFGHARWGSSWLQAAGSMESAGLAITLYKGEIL
Particulars: Zn, 2-3 h.

The test system of data set [6] is T4, B5 deaminase. Conditions: LC/MS.
In data set [7] the test system is T4, B5 deaminase.
Data set [8] has as its system APOBEC.
Data set [9] has as its system T4, B5 deaminase. Particulars: 30 C 12 h, 6 uM enzyme.
Data set [10] has as its system T2, F7 deaminase. Particulars: all C replaced by 5mC; most preferred motif GTCAG; least GGCCG 5.51%.
Data set [11] concerns T5, G12 deaminase.
T5 sequence: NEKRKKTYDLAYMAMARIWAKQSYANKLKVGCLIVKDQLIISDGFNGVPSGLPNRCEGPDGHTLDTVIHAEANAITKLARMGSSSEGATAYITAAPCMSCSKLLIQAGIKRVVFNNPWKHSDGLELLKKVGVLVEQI
Particulars: all C replaced by 5mC; most preferred motif TACGG; least GCCCC 0.90%.

Data set [12] deals with T6, H3 deaminase.
T6 sequence: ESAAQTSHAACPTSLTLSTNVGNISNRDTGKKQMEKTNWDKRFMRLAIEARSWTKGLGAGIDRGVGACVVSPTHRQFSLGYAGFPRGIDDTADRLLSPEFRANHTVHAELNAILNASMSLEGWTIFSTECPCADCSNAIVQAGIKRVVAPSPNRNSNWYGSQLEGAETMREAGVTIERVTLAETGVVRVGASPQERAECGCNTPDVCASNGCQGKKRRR
Conditions: all C replaced by 5mC; most preferred motif AACTT; least GGCCC 1.28%.

For data set [13], the system named is T3, E10 deaminase. Conditions: all C replaced by 5mC; most preferred motif ATCAA; least GGCGC 11.58%.
Data set [14] relates to T4, B5 deaminase. Particulars: all C replaced by 5mC; most preferred motif ATCAA; least GGCCC 22.51%.
Data set [15] addresses T7, 251 deaminase.
T7 chain: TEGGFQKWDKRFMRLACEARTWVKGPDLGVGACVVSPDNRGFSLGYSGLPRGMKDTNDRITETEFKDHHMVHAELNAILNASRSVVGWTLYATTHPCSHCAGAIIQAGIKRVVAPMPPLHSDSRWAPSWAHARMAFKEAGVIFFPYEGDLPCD
Nature of the data set: solid support, overnight. Particulars: tags: immobilized on solid support; label: 5'-FAM.

Data set [16] concerns the target T8, E12 deaminase.
T8 chain: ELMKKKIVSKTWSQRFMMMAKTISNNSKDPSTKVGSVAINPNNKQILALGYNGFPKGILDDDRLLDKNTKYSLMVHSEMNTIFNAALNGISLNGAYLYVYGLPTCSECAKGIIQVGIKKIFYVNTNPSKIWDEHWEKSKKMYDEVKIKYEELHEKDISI
Nature of the data set: solid support, overnight. Conditions: tags: immobilized on solid support; label: 5'-FAM.

The target in data set [17] is T9, 252 deaminase.
T9 chain: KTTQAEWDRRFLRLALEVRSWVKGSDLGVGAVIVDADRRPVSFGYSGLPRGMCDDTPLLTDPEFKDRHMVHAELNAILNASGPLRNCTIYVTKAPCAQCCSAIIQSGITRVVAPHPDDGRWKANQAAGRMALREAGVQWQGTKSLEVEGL
Nature of the data set: solid support, overnight. Conditions: tags: immobilized on solid support; label: 5'-FAM.

Data set [18] has as its target T10, 206 deaminase.
T10 chain: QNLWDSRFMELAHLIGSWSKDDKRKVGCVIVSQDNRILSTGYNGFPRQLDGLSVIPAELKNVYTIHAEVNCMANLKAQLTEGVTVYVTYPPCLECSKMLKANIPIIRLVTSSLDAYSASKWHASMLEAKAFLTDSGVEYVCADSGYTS
Nature of the data set: solid support, overnight. Conditions: tags: immobilized on solid support; label: 5'-FAM.

Data set [19] deals with T11, H2 deaminase.
T11 chain: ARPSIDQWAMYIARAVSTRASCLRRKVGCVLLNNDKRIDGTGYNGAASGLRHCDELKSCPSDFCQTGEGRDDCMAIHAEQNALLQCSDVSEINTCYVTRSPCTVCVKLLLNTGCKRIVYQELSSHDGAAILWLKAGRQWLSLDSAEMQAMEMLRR
Nature of the data set: solid support, overnight. Particulars: tags: immobilized on solid support; label: 5'-FAM.

For data set [20], the target named is T12, G10 deaminase.
T12 chain: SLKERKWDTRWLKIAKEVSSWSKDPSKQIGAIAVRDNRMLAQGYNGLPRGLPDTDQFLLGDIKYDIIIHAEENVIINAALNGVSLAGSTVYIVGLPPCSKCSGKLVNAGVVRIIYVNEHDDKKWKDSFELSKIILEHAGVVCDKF
Nature of the data set: solid support, overnight. Particulars: tags: immobilized on solid support; label: 5'-FAM.

The target of data set [21] is T13, F12 deaminase.
T13 chain: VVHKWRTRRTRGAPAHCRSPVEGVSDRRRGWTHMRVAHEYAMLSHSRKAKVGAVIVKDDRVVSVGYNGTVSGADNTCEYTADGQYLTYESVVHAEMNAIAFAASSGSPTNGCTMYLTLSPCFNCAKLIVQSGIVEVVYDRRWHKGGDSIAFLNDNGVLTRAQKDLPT
Nature of the data set: solid support, overnight. Conditions: tags: immobilized on solid support; label: 5'-FAM.

For data set [22], the target named is T14, PRW294.
T14 chain: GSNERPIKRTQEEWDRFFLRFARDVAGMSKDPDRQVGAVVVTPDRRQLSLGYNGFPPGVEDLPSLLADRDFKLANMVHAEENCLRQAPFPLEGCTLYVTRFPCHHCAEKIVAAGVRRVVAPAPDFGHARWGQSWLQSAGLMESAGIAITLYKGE
Nature of the data set: 1 h. Particulars: label: 5'-FAM.

For data set [23], the target named is T15, PRW314.
T15 chain: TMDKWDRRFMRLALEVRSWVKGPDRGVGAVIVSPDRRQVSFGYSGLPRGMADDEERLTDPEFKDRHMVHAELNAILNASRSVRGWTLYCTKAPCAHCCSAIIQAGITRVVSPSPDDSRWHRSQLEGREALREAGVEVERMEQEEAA
Nature of the data set: 1 h. Conditions: label: 5'-FAM.

Data set [24] has as its target T16, PRW313.
T16 chain: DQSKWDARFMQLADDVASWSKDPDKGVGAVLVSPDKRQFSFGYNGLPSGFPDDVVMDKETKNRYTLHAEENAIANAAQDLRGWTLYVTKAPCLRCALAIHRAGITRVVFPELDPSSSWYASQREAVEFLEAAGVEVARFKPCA
Nature of the data set: 1 h. Particulars: label: 5'-FAM.

In data set [25] the target is T17, PRW311.
T17 chain: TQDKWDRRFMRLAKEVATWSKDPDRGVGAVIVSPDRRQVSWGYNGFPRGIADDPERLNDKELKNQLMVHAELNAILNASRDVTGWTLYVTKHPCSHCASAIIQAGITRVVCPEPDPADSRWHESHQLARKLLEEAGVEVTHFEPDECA
Nature of the data set: 1 h. Particulars: label: 5'-FAM.

Read-outs that look alike come from different tables or passages of the source.

As for “ATACACCGATGCAGAACTCATGGGCTTACGC [FAM 5mC oligo 1]”, the activity (% deamination) came out at 51 in [1] (5mC at position 17, 42 C, Bis-Tris pH 6.5); 3 in data set [2]; 72 in data set [3] (5mC at position 17); 54 in data set [4] (5mC at position 17, highest measured (6-7% in FIG. 7C/D)); 74 in data set [5] (5mC at position 17, EcoRI/CE assay, 42 C, Bis-Tris pH 6.5, 36% in FIG. 7B and when on Ni beads).
With ssDNA oligo C (Table 6), the activity (% deamination) in data set [6] (average) was 2.
Consider ssDNA oligo with 5fC (Table 6), for which the activity (% deamination) in data set [6] (5fC) amounted to 2.
ssDNA oligo with 5hmC (Table 6) registered an activity (% deamination) in [6] (5hmC) of 36.
As to T4 genomic DNA, denatured, the activity (% deamination) in [7] (5gmC (glucosylated 5hmC), NaOH and heat denatured) came out at 6.
For ssDNA oligo with 5gmC (Table 6), in data set [6] (5gmC), the activity (% deamination) came to 2.
With ssDNA oligo with 5caC (Table 6), the activity (% deamination) in data set [6] (5caC) came to 2.
The molecule XP12 genomic DNA, native showed an activity (% deamination) in [7] (all C replaced by 5mC, not denatured) of 4.
In data set [7] (not denatured), lambda genomic DNA, native showed an activity (% deamination) of 3.
The molecule lambda genomic DNA, denatured registered an activity (% deamination) in data set [7] (NaOH and heat denatured) of 6.
In the case of “TGTCCGATAGACTCTACGCA [5hmC-oligo (Oligo 1)]”, the activity (% 5hmC to 5hmU) in data set [8] (5hmC at position 14, unmodified C 100%) was 100; in data set [9] (5hmC at position 14, DpnII buffer, LC/MS, unmodified C 0.90%), 35.
T4 genomic DNA, native: in data set [7] (5gmC (glucosylated 5hmC), not denatured), the activity (% deamination) was 3.
For the molecule “TGTCCGATAGACTCTACGCA [5mC-oligo (Oligo 2)]”, the activity in data set [8] (5mC at position 14, unmodified C 94.1%) is 100 % 5mC to T; in data set [9] (5mC at position 14, unmodified C 2.80%), 21.1 % 5mC to T.
Consider T4gt genomic DNA, denatured, for which the activity (% deamination) in data set [7] (all C replaced by 5hmC, NaOH and heat denatured) amounted to 27.
Consider “ATACACCGATGCAGAACTCATGGGCTTACGC [FAM C oligo 4]”, for which the activity (% deamination) in data set [1] was 7; in data set [3] it was 12; in [4], 3; in data set [5], 4.
In turn, ssDNA oligo with 5mC (Table 6) came in with an activity (% deamination) in data set [6] (5mC) of 53.
Turning to XP12 genomic DNA, denatured, the activity (% deamination) was 35 in [7] (all C replaced by 5mC, NaOH and heat denatured); 22 in [10]; 12.7 in [11]; 11.3 in data set [12]; 40.9 in data set [13]; 74.6 in data set [14].
Consider T4gt genomic DNA, native, for which, in data set [7] (all C replaced by 5hmC, not denatured), the activity (% deamination) was found to be 9.
As for ATACACCGATGCAGAACTCATGGGCTTACGC (ssDNA, 5mC at position 17) [FAM 5mC oligo 1], the activity in [15] is 66 % deamination; in data set [16], 5 % deamination; in [17], 12 % deamination; in data set [18], 50 % deamination; in data set [19], 7 % deamination; in data set [20] it was 4.5 % deamination. Moreover, the activity in [21] came to 10 % deamination; in [22], 73 % deamination; in [23], 90 % deamination; in [24], 90 % deamination; in data set [25] it was 69 % deamination.
On to ATACACCGATGCAGAACTCATGGGCTTACGC (ssDNA) [FAM C oligo 4], for which the activity in data set [20] was 2.6 % deamination; in data set [23] it was 13 % deamination; in data set [24], 11 % deamination.
